Experimental data taken from patent US20220112288A1 (published 2022).
Positions count from the first letter of the chain named. Blank lines part the entries; values can stand above or below the binder they belong to.

Molecular target: T1, Rhesus macaque CD4-HIS (Acro Biosystems, Cat. CD4-C52H7) (rhesus macaque, UniProt P16003 26-390)
T1 construct: Bought reagent; also called Rhesus CD4; rhesus CD4-HIS; not shown: His tag
Assay: BLI (Octet Red384); Ab on anti-mouse Fc (AMC) sensor; rhesus CD4-HIS 100/50/25 nM; global 1:1 fit;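 note: antibodies loaded at 10 µg/mL, an unrelated mouse-derived antibody served as internal reference, curves fit over association and dissociation phases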

T1 sequence (P16003 26-390 limits assumed): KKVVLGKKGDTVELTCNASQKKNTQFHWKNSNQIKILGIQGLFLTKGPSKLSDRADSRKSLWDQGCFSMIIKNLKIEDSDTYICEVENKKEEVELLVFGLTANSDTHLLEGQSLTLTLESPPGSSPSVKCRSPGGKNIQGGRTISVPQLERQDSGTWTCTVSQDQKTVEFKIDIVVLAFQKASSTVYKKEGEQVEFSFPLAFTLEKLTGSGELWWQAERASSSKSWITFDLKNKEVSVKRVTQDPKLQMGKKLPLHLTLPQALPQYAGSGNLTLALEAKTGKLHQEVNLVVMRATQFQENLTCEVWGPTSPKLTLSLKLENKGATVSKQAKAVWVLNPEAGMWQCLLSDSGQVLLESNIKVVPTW

Kd: 27 nM
Response: 0.15
koff: 0.002 s⁻¹
kon: 73000 M⁻¹ s⁻¹
B1: 75110_06C16A (antibody, V domains shown)
VH: QVQLQESGPGLVTPSETLSLSCTVSGGSISDYYWSWIRQPGGKGLEWIGRIYSSGSTNYNPSLKSRVTMSVDTSKNQFSLKLSSVTAADTAVYFCARDREDYYYYGMDVWGQGTTVTVSS
VL: DIQMTQSPSSLSASVGDRVTITCQASHDISNYLNWYQQKPGKAPKLLIYAASNLETGVPSRFSGSGSGTDFSFTISSLQPEDIATYYCQQYDHLPLTFGGGTKVEIK
notes: Tested as antibody purified from AlivaMab Mouse hybridoma supernatant (human variable domains, kappa; mouse Fc, captured on anti-mouse IgG Fc sensors); also called ADS75110 purified AMM Ab

Kd: 53 nM
Response: 0.05
koff: 0.0017 s⁻¹
kon: 32000 M⁻¹ s⁻¹
B2: 75110_08D24A (antibody, V domains shown)
VH: B1 VH with T13K, S21T, D31G, Y32F, G41A, S53T, G55E, S56N, F94Y, D101G
VL: B1 VL with H27Q, S72T, H93S, L96I, G100Q, K103R, V104L
notes: as for B1

Kd: 2.1 nM
Response: 0.05
koff: 0.0011 s⁻¹
kon: 510000 M⁻¹ s⁻¹
B3: 75110_06G04A (antibody, V domains shown)
VH: QVQLLESGPGLVKPSETLSLTCTVSGGSISSYYWSWIRQPAGKGLEWIGRIYISGSTNYNPSLKSRVTMSIDTSENQFSLNLSSVTAADTAVYYCARELERPYYYGMDVWGQGTTVTVSS
VL: B1 VL with H27Q, A50N, N53T, S72T, H93N, I106F
notes: as for B1

Kd: 7.8 nM
Response: 0.13
koff: 0.00035 s⁻¹
kon: 45000 M⁻¹ s⁻¹
B4: 75110_06K03A (antibody, V domains shown)
VH: B3 VH with L5Q, S31T, Y52N, I53T, N58T, I71V, E75K, N81K, P102Y
VL: B1 VL with H27Q, A50Y, N53I, S72T, H93S
notes: as for B1

Kd: 17 nM
Response: 0.17
koff: 0.0022 s⁻¹
kon: 130000 M⁻¹ s⁻¹
B5: 75110_08M20A (antibody, V domains shown)
VH: B1 VH with G8D, T13K, S21T, D31S, G41A, S53A, F94Y, D101G
VL: B1 VL with H27Q, N31K, K45N, S72T, T85A, H93S, L96I, G100Q, K103R, V104L
notes: as for B1

Kd: 230 nM
Response: 0.1
koff: 0.00069 s⁻¹
kon: 3000 M⁻¹ s⁻¹
B6: 75110_06E14A (antibody, V domains shown)
VH: B1 VH with T13K, S21T, D31N, Y33F, G41A, S56N, F94Y
VL: B1 VL with H27Q, A50G, N53I, S63T, S72T, H93S, L96I, G100Q, K103R, V104L
notes: as for B1

Kd: 7.6 nM
Response: 0.31
koff: 0.0011 s⁻¹
kon: 150000 M⁻¹ s⁻¹
B7: 75110_05L07A (antibody, V domains shown)
VH: EVQLVESGGGLVQPGGSLRLSCAASGFTFSSYWMSWVRQAPGKGLEWVANINQDGSDKYYVDSVKGRFTISRDNVKNSLYLQINSLRAEDTAVYYCAREGGQWLTLDYWGQGTLVTVSS
VL: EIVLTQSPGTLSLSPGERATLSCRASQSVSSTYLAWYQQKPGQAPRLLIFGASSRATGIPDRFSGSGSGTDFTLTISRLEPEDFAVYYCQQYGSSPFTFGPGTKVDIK
notes: as for B1

Kd: 240 nM
Response: 0.09
koff: 0.022 s⁻¹
kon: 91000 M⁻¹ s⁻¹
B8: 75110_06D16A (antibody, V domains shown)
VH: QVQLQQWGAGLLKPSETLSLTCAVYGGSFSGYYWSWIRQPPGKGLEWIGEINHSGSTNYNPSLKSRVTISVVTSKNQFSLKLSSVTAADTAVYYCARVLNWFDPWGQGTLVTVSS
VL: DIQMTQSPSSVSASVGDRVTITCRASQDIADWLAWYQQKPGKAPKLLIYAASSFQSGVPSRFSGSGSGTDFTLTISSLQPEDFATYFCQQANSFPYTFGQGTKLEIK
notes: as for B1

Kd: 13 nM
Response: 0.17
koff: 0.0033 s⁻¹
kon: 250000 M⁻¹ s⁻¹
B9: 75110_07B16A (antibody, V domains shown)
VH: B8 VH with P40S, H53Q, V72D, N76D, L99I, P104S, T109S
VL: B8 VL with D28G, A30S, D31S, A50D, P80T, E81D, F87Y
notes: as for B1

Kd: 2.6 nM
Response: 0.02
koff: 0.00042 s⁻¹
kon: 160000 M⁻¹ s⁻¹
B10: 75110_07E04A (antibody, V domains shown)
VH: EVQLVESGGGLVQPGGSLRLSCAVSGFTFSSYDMHWVRQATGKGLEWVSTIGTAGDTYYPGSVKGRFTISRENAKKFLYLQMNSLRAGDTAVYYCARGGYYYYGMDVWGQGTTVTVSS
VL: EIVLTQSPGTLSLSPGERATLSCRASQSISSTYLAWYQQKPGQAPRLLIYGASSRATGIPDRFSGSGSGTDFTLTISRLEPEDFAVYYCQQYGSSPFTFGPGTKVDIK
notes: as for B1
